Source: patent publication US20210236667A1
Where two headings read alike, the source gives them in different places. Blank lines part the entries; values can stand above or below the binder they belong to.

Experiments:
[1] = target: Human epidermal growth factor receptor (EGFR) (human) (UniProt P00533); test: flow cytometry saturation binding on MDA-MB-468 cells
[2] = target: Human epidermal growth factor receptor (EGFR) (human) (UniProt P00533); test: flow cytometry on MDA-MB-468 cells
[3] = target: Human epidermal growth factor receptor (EGFR) (human) (UniProt P00533); test: immunoreactive fraction (Lindmo) assay on MDA-MB-468 cells
[4] = target: Human epidermal growth factor receptor (EGFR) (human) (UniProt P00533); test: saturation radioligand binding assay on MDA-MB-468 cells
[5] = target: Human epidermal growth factor receptor (EGFR) (human) (UniProt P00533); test: flow cytometry on MDA-MB-468 cells; remark: listed apart in the source
[6] = target: Human epidermal growth factor receptor (EGFR) (human) (UniProt P00533); test: competitive radioligand binding on MDA-MB-468 cells pre-blocked with 100-fold excess of unlabeled 8709-scFv-Fc; ^225Ac-8709-scFv-Fc at 50 nM

- Kd [1]: 4.2 nM
- % binding [2]: > 90%
B1: 8709-scFv-Fc-PEG6-DM1 (scFv, part only; not given: scFv linker, hinge and Fc, V domains shown, not shown: another chain or arm of the molecule; a dimerising Fc or GST; small tags and cut ends)
VH: EVQLVESGGGLVQPGGSLRLSCAASGFNLYSSSMHWVRQAPGKGLEWVASIYPYSGYTYYADSVKGRFTISADTSKNTAYLQMNSLRAEDTAVYYCARYPFGVSAYYAMDYWGQGTLVTVSS
VL: DIQMTQSPSSLSASVGDRVTITCRASQSVSSAVAWYQQKPGKAPKLLIYSASSLYSGVPSRFSGSRSGTDFTLTISSLQPEDFATYYCQQSYWLITFGQGTKVEIK
modifications: PEG6-DM1 coupled via DM1-PEG6-NHS, drug to antibody ratio 3.5; attachment sites not stated.

- immunoreactive fraction [3]: 0.86
- Kd [4]: 14.5 nM
B2: ^225Ac-8709-scFv-Fc (scFv, part only; not given: scFv linker, hinge and Fc, V domains shown, not shown: another chain or arm of the molecule; a dimerising Fc or GST; small tags and cut ends)
VH: B1 VH
VL: B1 VL
modifications: Macropa chelator (coupled via macropa-NCS) carrying ^225Ac; attachment sites not stated.

- Kd [1]: 11.3 nM
- fold higher KD as compared to 8709-scFv-Fc [1]: 10.4 fold
- % binding [5]: > 85%
- % binding [2]: > 90%
B3: Macropa-8709-scFv-Fc (scFv, part only; not given: scFv linker, hinge and Fc, V domains shown, not shown: another chain or arm of the molecule; a dimerising Fc or GST; small tags and cut ends)
VH: B1 VH
VL: B1 VL
modifications: Macropa chelator coupled via macropa-NCS, not radiolabeled; attachment sites not stated.

- fold reduction in the binding of ^225Ac-8709-scFv-Fc to EGFR [6]: 23.2 fold
- Kd [1]: 1.1 nM
- % binding [2]: > 90%
B4: 8709-scFv-Fc (scFv, part only; not given: scFv linker, hinge and Fc, V domains shown, not shown: another chain or arm of the molecule; a dimerising Fc or GST; small tags and cut ends)
VH: B1 VH
VL: B1 VL
